# Laboratory results from patent US20250034266A1 (ZAI LAB SHANGHAI, published 2025).
# Assays:
# [1] = molecular target: T1, human CCR8 (human, UniProt P51685 1-355); assay: cell-based or functional assay
# T1 sequence (P51685 whole entry): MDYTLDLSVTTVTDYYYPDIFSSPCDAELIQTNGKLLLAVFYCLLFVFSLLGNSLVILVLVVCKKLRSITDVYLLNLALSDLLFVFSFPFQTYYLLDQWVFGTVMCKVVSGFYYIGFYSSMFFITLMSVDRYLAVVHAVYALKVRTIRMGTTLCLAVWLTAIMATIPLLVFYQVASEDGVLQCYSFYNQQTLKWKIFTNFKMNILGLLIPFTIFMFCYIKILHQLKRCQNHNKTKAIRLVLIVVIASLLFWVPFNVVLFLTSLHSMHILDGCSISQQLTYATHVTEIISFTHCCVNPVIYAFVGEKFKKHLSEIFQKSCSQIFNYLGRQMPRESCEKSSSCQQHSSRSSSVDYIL
# [2] = molecular target: T1, human CCR8; assay: cell-based or functional assay; remark: listed apart in the source
# [3] = molecular target: human CCR8 tagged with ProLink (PK) (human, UniProt P51685 1-355); assay: cell-based or functional assay
# [4] = molecular target: T2, human CCR8 (human, UniProt P51685 1-355); assay: FACS on CHO-K1-human CCR8 cells
# T2 construct: whole, on cells; also called hCCR8
# T2 sequence (P51685 whole entry): as above
# [5] = molecular target: T2, human CCR8; assay: cell-based or functional assay; remark: listed apart in the source
# [6] = molecular target: T2, human CCR8; assay: FACS on HuT78 cells (endogenous human CCR8)
# Experimental: HuT78 cells expressing endogenous human CCR8 were used for determining binding affinities of selected affinity matured anti-CCR8 antibodies. Briefly, a total of […] cells for each well were seeded in 96-well plates and washed with FACS buffer (DPBS containing […]) for once. […] Cells were incubated with 50 μL of diluted antibodies at 4° C. for 1 hour. After primary antibody incubation, cells were washed for 3 times by FACS buffer. Then, cells were stained by Alexa Fbu647 labeled anti-human IgG secondary antibody (Jackson ImmunoResearch, #109606170) at 1:600 dilution in FACS buffer for 0.5 hour at 4° C. After 3 times washed, flow cytometry (Sartourius, iQue3) was performed to measure the binding affinities of antibodies. […]
# [7] = molecular target: T3, cynomolgus CCR8 (cynomolgus, UniProt G7NYJ2 1-355); assay: FACS on HEK293-cynomolgus CCR8 cells
# T3 construct: whole, on cells
# T3 sequence (G7NYJ2 entry or part of it): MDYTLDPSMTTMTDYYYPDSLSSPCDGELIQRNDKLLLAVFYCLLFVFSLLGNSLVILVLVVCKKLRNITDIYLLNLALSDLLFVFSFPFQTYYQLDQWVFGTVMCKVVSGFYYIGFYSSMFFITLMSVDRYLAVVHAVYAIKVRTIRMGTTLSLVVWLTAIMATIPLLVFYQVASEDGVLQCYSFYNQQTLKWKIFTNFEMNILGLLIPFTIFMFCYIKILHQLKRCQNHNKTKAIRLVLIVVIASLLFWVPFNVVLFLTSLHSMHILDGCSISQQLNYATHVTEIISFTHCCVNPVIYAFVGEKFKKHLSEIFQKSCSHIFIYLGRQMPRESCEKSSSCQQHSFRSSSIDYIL
# [8] = molecular target: T2, human CCR8; assay: FACS, competition with CCL1 on CHO-K1-human CCR8 cells
# [9] = molecular target: T2, human CCR8; assay: FACS of purified scFv on CHO-K1-human CCR8 cells
# [10] = molecular target: T1, human CCR8; assay: cell-based or functional assay; remark: listed apart in the source
# [11] = molecular target: T1, human CCR8; assay: flow cytometry on TALL-1 cells (endogenous CCR8)
# Experimental: Briefly, a total of 5×10⁴ cells for each well were seeded in 96-well plates and washed with FACS buffer (DPBS containing 1.5% FBS) for once. Antibodies were prepared with 3-fold serial dilution ranging from 100 nM to 0.00508 nM in FACS buffer. Cells were incubated with 50 μL of diluted antibodies at 4° C. for 40 minutes. After primary antibody incubation, cells were washed twice by FACS buffer. Then, cells were stained by Alexa Flu647-labeled anti-human IgG Fc secondary antibody (Jackson ImmunoResearch, #109606170) at 1:500 dilution in FACS buffer for 40 minutes at 4° C. After 2 times wash with FACS buffer, flow cytometry (BD FACS Celesta) was performed to measure the binding affinities of antibodies.
# human CCR8 tagged with ProLink (PK), sequence (P51685 whole entry): as the sequence (P51685 whole entry) above
binder,measurement,setting,value
"Hu149-12G1 (antibody, human IgG1) heavy: not shown VL: DIVMTQSPLSLPVTPGEPASISCRSSKSLLHSNANTYLYWFLQKPGQSPQLLIYRMSNLASGVPDRFSGSGSGTDFTLKISRVEAEDVGVYYCMQHLEYPLTFGGGTKVELK","EC50, ADCC reporter, F variant CD16a/NFAT-Jurkat, target CHO-K1-human CCR8 cells",[1],0.0598 nM
same,"EC50, ADCC reporter, F variant CD16a/NFAT-Jurkat, target HuT78 cells",[1],0.744 nM
same,"EC50, ADCC reporter, V variant CD16a/NFAT-Jurkat, target CHO-K1-human CCR8 cells",[1],0.043 nM
same,"EC50, ADCC reporter, V variant CD16a/NFAT-Jurkat, target HuT78 cells",[1],0.495 nM
same,"Max (RLU), ADCC reporter, F variant CD16a/NFAT-Jurkat, target CHO-K1-human CCR8 cells",[1],4.96e+06 RLU
same,"Max (RLU), ADCC reporter, F variant CD16a/NFAT-Jurkat, target HuT78 cells",[1],5.28e+06 RLU
same,"Max (RLU), ADCC reporter, V variant CD16a/NFAT-Jurkat, target CHO-K1-human CCR8 cells",[1],2.28e+06 RLU
same,"Max (RLU), ADCC reporter, V variant CD16a/NFAT-Jurkat, target HuT78 cells",[1],4.19e+06 RLU
same,"EC50, ADCC with human PBMCs, target CHO-K1-human CCR8 cells",[2],0.0113 nM
same,"Max specific lysis (%), ADCC with human PBMCs, target CHO-K1-human CCR8 cells",[2],36.4%
"Hu149-12G1m (antibody, human IgG1) heavy: EVQLVESGGGLVQPGGSLKLSCAASGFTFNTYAMNWVRQASGKGLEWVGRIRSKSNFYATAYAASVKGRFTISRDDSKNTAYLQMNSLKTEDTAVYYCTRGKEYGSSYAMDYWGQGTLVTVSSASTKGPSVFPLAPSSKSTSGGTAALGCLVKDYFPEPVTVSWNSGALTSGVHTFPAVLQSSGLYSLSSVVTVPSSSLGTQTYICNVNHKPSNTKVDKKVEPKSCDKTHTCPPCPAPELVGGPSVFLLPPKPKDTLMISRTPEVTCVVVDVSHEDPEVKFNWYVDGVEVHNAKTKPPEEQYNSTLRVVSVLTVLHQDWLNGKEYKCKVSNKALPAPIEKTISKAKGQPREPQVYTLPPSRDELTKNQVSLTCLVKGFYPSDIAVEWESNGQPENNYKTTPLVLDSDGSFFLYSKLTVDKSRWQQGNVFSCSVMHEALHNHYTQKSLSLSPGK VL: DIVMTQSPLSLPVTPGEPASISCRSSKSLLHSNANTYLYWFLQKPGQSPQLLIYRMSNLASGVPDRFSGSGSGTDFTLKISRVEAEDVGVYYCMQHLEYPLTFGGGTKVELK","IC50, inhibition of CCL1 induced β-Arrestin recruitment, CHO-K1-human CCR8 β-Arrestin cells",[3],1.16 nM
same,"EC50, ADCC reporter, F variant CD16a/NFAT-Jurkat, target CHO-K1-human CCR8 cells",[1],0.00405 nM
same,"EC50, ADCC reporter, F variant CD16a/NFAT-Jurkat, target HuT78 cells",[1],0.00869 nM
same,"EC50, ADCC reporter, V variant CD16a/NFAT-Jurkat, target CHO-K1-human CCR8 cells",[1],0.0056 nM
same,"EC50, ADCC reporter, V variant CD16a/NFAT-Jurkat, target HuT78 cells",[1],0.0114 nM
same,"Max (RLU), ADCC reporter, F variant CD16a/NFAT-Jurkat, target CHO-K1-human CCR8 cells",[1],8.18e+06 RLU
same,"Max (RLU), ADCC reporter, F variant CD16a/NFAT-Jurkat, target HuT78 cells",[1],1.48e+07 RLU
same,"Max (RLU), ADCC reporter, V variant CD16a/NFAT-Jurkat, target CHO-K1-human CCR8 cells",[1],3.94e+06 RLU
same,"Max (RLU), ADCC reporter, V variant CD16a/NFAT-Jurkat, target HuT78 cells",[1],8.64e+06 RLU
same,"EC50, ADCC with human PBMCs, target CHO-K1-human CCR8 cells",[2],0.000136 nM
same,"Max specific lysis (%), ADCC with human PBMCs, target CHO-K1-human CCR8 cells",[2],44.2%
"Hu149-18 (antibody, human IgG1, V domains shown, human IgG1) VH: EVQLVESGGGLVQPGGSLKLSCAASGFTFNTYAMNWVRQASGKGLEWVGRIRSKSNFYATAYAASVKGRFTISRDDSKNTAYLQMNSLKTEDTAVYYCTRGRDYGSSYAMDYWGQGTLVTVSS VL: DIVMTQSPLSLPVTPGEPASISCRSSKSLLHSNANTYLYWFLQKPGQSPQLLIYRMSNLASGVPDRFSGSGSGTDFTLKISRVEAEDVGVYYCMQHLRYPLTFGGGTKVELK",EC50,[4],0.0722 nM
same,Max MFI,[4],694000 MFI
same,"IC50, inhibition of CCL1 induced β-Arrestin recruitment",[5],0.61 nM
same,"Max Inhibition (%), CCL1 induced β-Arrestin recruitment",[5],88.8%
same,Max MFI,[6],351000 MFI
same,EC50,[7],0.0826 nM
same,Max MFI,[7],4.15e+06 MFI
same,IC50,[8],0.0614 nM
same,Max Inhibition (%),[8],101%
VH-PH5-P3E3 (scFv) scFv: EVQLVESGGGLVQPGGSLKLSCAASGFTFNTYAMNWVRQASGKGLEWVGRIRSKSNFYATAYAASVKGRFTISRDDSKNTAYLQMNSLKTEDTAVYYCTRGREYGSAYAMDYWGQGTLVTVSSGGGGSGGGGSGGGGSDIVMTQSPLSLPVTPGEPASISCRSSKSLLHSNANTYLYWFLQKPGQSPQLLIYRMSNLASGVPDRFSGSGSGTDFTLKISRVEAEDVGVYYCMQHLEYPLTFGGGTKVELK,GeoMean AF647 (RL1-H) of CHO-K1-human CCR8 / GeoMean AF647 (RL1-H) in H12(NC),[9],3.6
VH-PH5-P5F7 (scFv) scFv: EVQLVESGGGLVQPGGSLKLSCAASGFTFNTYAMNWVRQASGKGLEWVGRIRSKSNFYATAYAASVKGRFTISRDDSKNTAYLQMNSLKTEDTAVYYCTRGREYGRSYAMDYWGQGTLVTVSSGGGGSGGGGSGGGGSDIVMTQSPLSLPVTPGEPASISCRSSKSLLHSNANTYLYWFLQKPGQSPQLLIYRMSNLASGVPDRFSGSGSGTDFTLKISRVEAEDVGVYYCMQHLEYPLTFGGGTKVELK,GeoMean AF647 (RL1-H) of CHO-K1-human CCR8 / GeoMean AF647 (RL1-H) in H12(NC),[9],7.1
"VH-PH7-P2H12 (scFv, also called VH-PH7-P2H12(S41P)) scFv: EVQLVESGGGLVQPGGSLKLSCAASGFTFNTYAMNWVRQAPGKGLEWVGRIRSKSNFYATAYAASVKGRFTISRDDSKNTAYLQMNSLKTEDTAVYYCTRGRDYGSSYAMDYWGQGTLVTVSSGGGGSGGGGSGGGGSDIVMTQSPLSLPVTPGEPASISCRSSKSLLHSNANTYLYWFLQKPGQSPQLLIYRMSNLASGVPDRFSGSGSGTDFTLKISRVEAEDVGVYYCMQHLEYPLTFGGGTKVELK",GeoMean AF647 (RL1-H) of CHO-K1-human CCR8 / GeoMean AF647 (RL1-H) in H12(NC),[9],6
VL-PH5-P3E4 (scFv) scFv: EVQLVESGGGLVQPGGSLKLSCAASGFTFNTYAMNWVRQASGKGLEWVGRIRSKSNFYATAYAASVKGRFTISRDDSKNTAYLQMNSLKTEDTAVYYCTRGRDYGSSYAMDYWGQGTLVTVSSGGGGSGGGGSGGGGSDIVMTQSPLSLPVTPGEPASISCRSSKSLLHSNANTYLYWFLQKPGQSPQLLIYRMSNLASGVPDRFSGSGSGTDFTLKISRVEAEDVGVYYCMQHLRYPLTFGGGTKVELK,GeoMean AF647 (RL1-H) of CHO-K1-human CCR8 / GeoMean AF647 (RL1-H) in H12(NC),[9],2.9
VH-PH5-P7B9 (scFv) scFv: EVQLVESGGGLVQPGGSLKLSCAASGFTFNTYAMNWVRQASGKGLEWVGRIRSKSNFYATAYAASVKGRFTISRDDSKNTAYLQMNSLKTEDTAVYYCTRGREYGSSYAMDYWGQGTLVTVSSGGGGSGGGGSGGGGSDIVMTQSPLSLPVTPGEPASISCRSSKSLLHSNANTYLYWFLQKPGQSPQLLIYRMSNLASGVPDRFSGSGSGTDFTLKISRVEAEDVGVYYCMQHLEYPLTFGGGTKVELK,GeoMean AF647 (RL1-H) of CHO-K1-human CCR8 / GeoMean AF647 (RL1-H) in H12(NC),[9],10.4
VH-PH5-P9E9 (scFv) scFv: EVQLVESGGGLVQPGGSLKLSCAASGFTFNTYAMNWVRQASGKGLEWVGRIRSKSNFYATAYAASVKGRFTISRDDSKNTAYLQMNSLKTEDTAVYYCTRGKEYGSSYAMDYWGQGTLVTVSSGGGGSGGGGSGGGGSDIVMTQSPLSLPVTPGEPASISCRSSKSLLHSNANTYLYWFLQKPGQSPQLLIYRMSNLASGVPDRFSGSGSGTDFTLKISRVEAEDVGVYYCMQHLEYPLTFGGGTKVELK,GeoMean AF647 (RL1-H) of CHO-K1-human CCR8 / GeoMean AF647 (RL1-H) in H12(NC),[9],10.8
VL-PH5-P5D9 (scFv) scFv: EVQLVESGGGLVQPGGSLKLSCAASGFTFNTYAMNWVRQASGKGLEWVGRIRSKSNFYATAYAASVKGRFTISRDDSKNTAYLQMNSLKTEDTAVYYCTRGRDYGSSYAMDYWGQGTLVTVSSGGGGSGGGGSGGGGSDIVMTQSPLSLPVTPGEPASISCRSSKSLLHSNANTYLYWFLQKPGQSPQLLIYRMSNLASGVPDRFSGSGSGTDFTLKISRVEAEDVGVYYCMQHLSYPLTFGGGTKVELK,GeoMean AF647 (RL1-H) of CHO-K1-human CCR8 / GeoMean AF647 (RL1-H) in H12(NC),[9],3.2
"TPP21360 (antibody, V domains shown) VH: EVQLLESGGGLVQPGGSLRLSCAASGFTFSSYGMHWVRQAPGKGLEWVSAINWNGGSTGYADSVKGRFTISRDNSKNTLYLQMNSLRAEDTAVYYCARGHHSGYDGRFFDYWGQGTLVTVSS VL: QSVLTQPPSVSGAPGQRVTISCTGSSSNIGAGYNVHWYQQLPGTAPKLLIYTNNRRPSGVPDRFSGSKSGTSASLAISGLRSEDEADYYCAAWDASLSGWVFGGGTKLTVLG","EC50, ADCC with human PBMCs (LDH release), target TALL-1 cells",[10],0.553 nM
same,EC50,[11],0.461 nM
